Reference: PMC4861984, “Deciphering a unique biotin scavenging pathway with redundant genes in the probiotic bacterium Lactococcus lactis” (Scientific Reports, 2016)

Legend:
[1] = biological target: T1, BirA_ec (Escherichia coli, UniProt P06709); experiment: TLC of biotinoyl-5'-AMP from [alpha-32P]ATP; MALDI-TOF of biotinylated AccB87; format: biochemical; conditions: 20 uM biotin, 5 uM ATP, 5 mM MgCl2, 100 mM KCl, pH 8, 37 °C; AccB87 acceptor
T1 construct: gene birA

[2] = biological target: T2, BirA1_LL (Lactococcus lactis IL1403, UniProt Q9CEQ6 1-323); experiment: EMSA; 100 uM biotin + 100 uM ATP (forms biotinoyl-AMP); 3-12 pmol protein; Roche binding buffer (composition, pH, temperature not stated), 0.2 pmol DIG probe in 15 ul, 100 uM biotin + 100 uM ATP, ~1 h; native PAGE 7% (Methods) or 7.5%; conditions: protein: recombinant; tags: His6 (pET28a); chain copies: 2; label: digoxigenin; blunt
T2 sequence: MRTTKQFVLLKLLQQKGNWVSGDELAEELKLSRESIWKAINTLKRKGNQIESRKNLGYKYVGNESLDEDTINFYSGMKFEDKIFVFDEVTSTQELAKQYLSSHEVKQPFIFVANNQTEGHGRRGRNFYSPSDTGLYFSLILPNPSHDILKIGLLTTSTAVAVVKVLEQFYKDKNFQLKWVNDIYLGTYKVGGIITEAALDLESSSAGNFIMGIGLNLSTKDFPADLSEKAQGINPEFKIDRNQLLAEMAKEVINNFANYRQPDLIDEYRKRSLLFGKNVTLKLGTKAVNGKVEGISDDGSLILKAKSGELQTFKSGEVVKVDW

[3] = biological target: T3, BirA2_LL (Lactococcus lactis IL1403, UniProt Q9CED9 1-250); experiment: EMSA; 100 uM biotin + 100 uM ATP; 3-12 pmol protein; Roche binding buffer (composition, pH, temperature not stated), 0.2 pmol DIG probe in 15 ul, 100 uM biotin + 100 uM ATP, ~1 h; native PAGE 7% (Methods) or 7.5%; conditions: protein: recombinant; tags: His6 (pET28a); chain copies: 2; label: digoxigenin; blunt
T3 sequence: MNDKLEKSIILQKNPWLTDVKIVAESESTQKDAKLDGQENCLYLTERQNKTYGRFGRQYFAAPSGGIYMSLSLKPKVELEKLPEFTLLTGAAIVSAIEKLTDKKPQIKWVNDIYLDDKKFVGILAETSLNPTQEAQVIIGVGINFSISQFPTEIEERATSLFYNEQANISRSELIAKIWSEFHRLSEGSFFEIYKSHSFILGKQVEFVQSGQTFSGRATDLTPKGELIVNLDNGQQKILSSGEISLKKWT

T1 sequence (P06709 whole entry): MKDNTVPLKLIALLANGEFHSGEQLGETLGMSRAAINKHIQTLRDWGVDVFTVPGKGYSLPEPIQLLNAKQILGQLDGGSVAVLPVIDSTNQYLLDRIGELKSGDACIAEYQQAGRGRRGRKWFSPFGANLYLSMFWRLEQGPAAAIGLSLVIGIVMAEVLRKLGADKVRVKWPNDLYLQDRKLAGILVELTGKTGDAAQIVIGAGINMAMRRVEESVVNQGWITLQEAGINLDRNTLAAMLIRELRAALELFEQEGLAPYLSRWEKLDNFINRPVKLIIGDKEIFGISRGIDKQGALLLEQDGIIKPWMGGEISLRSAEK

Molecule	TLC of biotinoyl-5'-AMP from [alpha-32P]ATP; MALDI-TOF of biotinylated AccB87 [1]	binding result [2]	binding result [3]
O=C(O)CCCC[C@@H]1SC[C@@H]2NC(=O)N[C@@H]21 [biotin]	The formation of the biotinylated AccB87 by E. coli BirA	–	–
bioY_LL (bioY1 promoter probe) (dsDNA) DNA 1: CAAATAATAAAATTAACAGTTAACCTAAATTTGATTTTAGGGTTACTGTTTGATATG DNA 2: CATATCAAACAGTAACCCTAAAATCAAATTTAGGTTAACTGTTAATTTTATTATTTG	–	binds	no binding
